From the supplement of paper PMC10567573

B1: WDR41 (parent)
chain: WTMQAYERNFWDPSPQLDTQQEIK
B2: SNX3 (parent)
chain: FLRQLPFRGDDGIFDDNFIEERKQ

Variants of: B1
Test: protein stability index of a GFP-peptide fusion (GPS, HEK-293T) (PSI 1-6); higher = more stable
Conditions: c terminus: a fixed tail appended
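Also: lentivirally expressed fusions sorted by FACS into six bins by GFP to DsRed ratio, PSI derived from sequencing read proportions per bin multiplied by bin number.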

Protein stability index, by site and new letter:
Q4: E 2.05 | G 3.34 | V 2.25 | C 2.27 | I 3.51 | P 3.21
A5: S 2.75 | N 3.18 | L 2.66 | R 3.25 | G 3.53
W1: H 3.13 | T 4.25 | C 2.3 | S 4.51 | G 4.73 | L 3.9 | A 3.77 | D 5.58
P15: F 1.96 | L 2.3 | C 2.3 | Y 1.81
R8: H 3.01 | Y 2.52 | P 3.77 | D 3.9
Q21: V 2.51 | T 2.5 | W 1.6 | G 2.62 | F 1.93 | Y 2.61
P13: C 2.31 | S 3.46 | V 2.04 | Y 2.26 | T 1.56 | K 3.44 | A 2.11 | Q 2.65 | E 3.17
M3: G 2.46 | F 2.07 | A 2.44 | C 1.97
T2: P 3.82 | C 2.15 | A 2.01 | H 1.89
S14: V 2.58 | H 1.94
E22: F 2.11 | T 2.33 | M 2.03
E7: W 2.39 | T 2.72 | H 2.32 | K 2.94 | C 1.77 | A 2.02
N9: C 1.94 | A 2.08 | F 2.12 | M 1.45 | D 3.69
D18: T 2.44 | F 2.14 | N 2.17
W11: P 3.97 | D 4.47 | S 3.93 | N 4.21
F10: Q 4.61 | I 3.58 | Y 3.38 | A 3.23 | T 3.89 | M 4.03 | H 4.14
L17: P 2.9 | G 3.22 | K 2.84 | S 2.68
Q20: V 2.34 | H 2.86 | C 2.75 | L 2.19 | T 2.04 | F 1.99
Q16: K 2.42 | P 2.4
T19: F 1.55 | R 2.05 | I 2 | P 2.21 | D 2.19 | K 2.69 | N 2.96
Y6: M 3.17 | T 2.83 | H 1.92 | C 2.87 | K 3.06 | P 2.95
I23: E 3.26 | H 2.75 | V 2.02
K24: V 2.17 | A 2.47 | I 1.98 | F 2.01 | N 2.31
D12: V 3.8

Variants of: B2
Test: as above
Conditions: c terminus: a fixed tail appended

Protein stability index: each site, then its substitutions
F1: H 5.32 | W 3.03 | T 4.59 | P 4.99 | M 3.56 | K 4.68 | R 4.59 | N 4.44 | A 4.63 | Q 4.96 | C 4.1 | I 3.58 | S 4.72 | L 3.83 | V 3.87 | D 4.7 | Y 4.18
L2: Q 3.07 | S 4.56 | T 4.04 | Y 4.46 | C 3.48 | V 2.19 | M 4.01 | W 3.02 | I 2.59 | A 3.84 | E 4.87 | F 3.16 | H 2.34 | N 4.08 | P 4.66 | D 4.72 | G 4.59 | K 2.81
R3: G 3.1 | C 2.71 | L 1.94 | Q 3.62 | A 3.28 | V 2.98 | D 3.45 | E 3.2 | P 4.09 | K 3.43 | H 3.12 | W 1.83 | F 1.97 | I 2.42 | M 2.76 | T 3.17 | N 3.48 | S 3.1
